Source: US20240350646A1, “METHODS AND COMPOSITIONS FOR DELIVERY TO AND ACROSS THE BLOOD BRAIN BARRIER” (NUtech Ventures, priority 2021, published 2024)

What was measured:
human claudin-9 = target: T1, human claudin-9 (human, UniProt O95484 1-217, limits assumed); assay: MST, sigmoidal dose-response fit (GraphPad Prism) of the FIG. 10A data; fit did not converge [panel B]
T1 sequence (looked up): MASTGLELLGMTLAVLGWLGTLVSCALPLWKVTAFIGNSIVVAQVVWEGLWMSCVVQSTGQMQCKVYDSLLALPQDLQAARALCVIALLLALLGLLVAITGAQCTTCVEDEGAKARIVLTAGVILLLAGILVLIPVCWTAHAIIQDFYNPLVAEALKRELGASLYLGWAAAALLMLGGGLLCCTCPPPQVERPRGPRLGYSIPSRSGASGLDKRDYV
Procedure: (§1) FIG. 10C is a graph showing the binding of human claudins 4 and 9 to control NPs monitored using microscale thermophoresis. […] Data fitting for human claudins 3, 4 and 9 were performed using Graph Pad Prism.
Human claudin-1 was expressed and purified as reported previously (Vecchio & Stroud, 2019, PNAS USA, 116:17817-24). MST measurements were performed using a Monolith instrument (NanoTemper Technologies). For experiments with human claudin-1, the assay buffer contained 10 mM Tris HCl, pH 8.0, 100 mM NaCl, 4% glycerol, and 0.04% n-Dodecyl-β-D-Maltopyranoside (β-DDM). NPs and peptides were labeled with AF647 prior to MST analysis as described above. For the binding experiments, the concentration of human claudin-1 was varied from 2.2-73,500 nM and the AF647-labeled C1C2-NP was fixed at 70 nM, while the AF647 labeled NPs and AF647 labeled C1C2 peptide were fixed at 1 and 0.3 μM, respectively. Binding of the AF647 labeled C1C2-NP to human claudin-3, -4, and -9 were tested using 0.4-14000 nM, 0.8-28000 nM, and 0.6-20000 nM, respectively; with the AF647 labeled C1C2-NP fixed at 70 nM. […] All experiments were conducted at 23° C. using the nano-red channel of the Monolith instrument and the data were analyzed by using either Monolith analysis software or Graph Pad Prism, version 9 (Graph Pad Software, San Diego, California).

human claudin-4 = target: T2, human claudin-4 (human, UniProt O14493 1-209, limits assumed); assay: MST, sigmoidal dose-response fit (GraphPad Prism) of the FIG. 10A data; confidence interval undefined [panel B]
T2 sequence (looked up): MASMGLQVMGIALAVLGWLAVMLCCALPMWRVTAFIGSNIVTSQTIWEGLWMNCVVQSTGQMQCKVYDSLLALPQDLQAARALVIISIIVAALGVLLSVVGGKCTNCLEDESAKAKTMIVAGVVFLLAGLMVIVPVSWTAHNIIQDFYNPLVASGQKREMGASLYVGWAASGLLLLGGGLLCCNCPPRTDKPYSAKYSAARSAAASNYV
Procedure: as §1, with “FIG. 10A is a graph showing binding of human claudins 3, 4 and 9 to C1C2-NPs using microscale thermophoresis. […] FIG.” for “FIG.”
(§2) Human claudin-1 was expressed and purified as reported previously (Vecchio & Stroud, 2019, PNAS USA, 116:17817-24). MST measurements were performed using a Monolith instrument (NanoTemper Technologies). For experiments with human claudin-1, the assay buffer contained 10 mM Tris HCl, pH 8.0, 100 mM NaCl, 4% glycerol, and 0.04% n-Dodecyl-β-D-Maltopyranoside (β-DDM). NPs and peptides were labeled with AF647 prior to MST analysis as described above. For the binding experiments, the concentration of human claudin-1 was varied from 2.2-73,500 nM and the AF647-labeled C1C2-NP was fixed at 70 nM, while the AF647 labeled NPs and AF647 labeled C1C2 peptide were fixed at 1 and 0.3 μM, respectively. Binding of the AF647 labeled C1C2-NP to human claudin-3, -4, and -9 were tested using 0.4-14000 nM, 0.8-28000 nM, and 0.6-20000 nM, respectively; with the AF647 labeled C1C2-NP fixed at 70 nM. This assay buffer was similar, except β-DDM was replaced with 0.1% n-Undecyl-β-D-Maltopyranoside (beta-UDM).

human claudin-3 = target: T3, human claudin-3 (human, UniProt O15551 1-220, limits assumed); assay: MST, sigmoidal dose-response fit (GraphPad Prism) of the FIG. 10A data; fit without amplitude, confidence interval undefined [panel B]
T3 sequence (looked up): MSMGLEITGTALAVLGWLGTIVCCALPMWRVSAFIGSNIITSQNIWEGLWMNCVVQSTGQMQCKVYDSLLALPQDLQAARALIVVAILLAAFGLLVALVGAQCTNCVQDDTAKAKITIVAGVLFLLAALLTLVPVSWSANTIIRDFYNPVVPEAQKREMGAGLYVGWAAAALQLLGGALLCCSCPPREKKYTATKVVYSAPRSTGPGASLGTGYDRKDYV
Procedure: as §1, with “FIG. 10A is a graph showing binding of human claudins 3, 4 and 9 to C1C2-NPs using microscale thermophoresis. […] FIG.” for “FIG.”
as §2

- LogEC50 (human claudin-9): -0.661
- LogEC50 (human claudin-4): -4.7
- LogEC50 (human claudin-3): -7.05
B1: C1C2-NP (C1C2 peptide conjugated to PEG diacid coated ultrasmall Gd nanoparticles) (peptide)
peptide: Ac-SSVSQSTGQIQSKVDSLLNLNSTQATR-NH2
modifications: not fully specified; also: conjugated by EDC-NHS chemistry to PEG diacid on Gd oxide nanoparticle surface (19 peptides per 3.5 nm particle)
notes: The protein part is the C1C2 peptide; the core is not a protein; also called C1C2-NPs; C1C2 NPs
